Results on three molecules are retold here after patent publication US20250043019A1 (Janssen / Centocor, published 2025).

Test [1] deals with T1, human CD20 on the cell surface (human, UniProt P11836 1-297).
T1 sequence (looked up): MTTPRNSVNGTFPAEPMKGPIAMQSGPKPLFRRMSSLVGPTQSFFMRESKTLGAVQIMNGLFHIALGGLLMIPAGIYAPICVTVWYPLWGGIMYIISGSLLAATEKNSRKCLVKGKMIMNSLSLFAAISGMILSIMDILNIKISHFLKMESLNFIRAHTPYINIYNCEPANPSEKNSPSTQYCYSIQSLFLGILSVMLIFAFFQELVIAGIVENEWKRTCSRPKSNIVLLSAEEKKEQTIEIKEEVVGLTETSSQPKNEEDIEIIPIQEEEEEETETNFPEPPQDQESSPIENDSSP
Put plainly: cell-based or functional assay.

The target of test [2] is human CD3 on primary T cells (human, UniProt P07766 23-207). Put plainly: cell-based or functional assay.
The target of test [3] is T2, human CD79b and CD20 co-expressed on the surface of B-lymphoma cell lines or primary B cells (human, UniProt P11836 1-297).
T2 sequence 1: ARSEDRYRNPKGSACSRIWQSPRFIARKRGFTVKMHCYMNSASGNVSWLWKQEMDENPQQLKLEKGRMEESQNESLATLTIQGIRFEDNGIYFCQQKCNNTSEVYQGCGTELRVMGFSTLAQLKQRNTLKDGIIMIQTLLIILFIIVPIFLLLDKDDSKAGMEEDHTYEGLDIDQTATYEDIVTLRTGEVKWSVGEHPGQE
T2 sequence 2: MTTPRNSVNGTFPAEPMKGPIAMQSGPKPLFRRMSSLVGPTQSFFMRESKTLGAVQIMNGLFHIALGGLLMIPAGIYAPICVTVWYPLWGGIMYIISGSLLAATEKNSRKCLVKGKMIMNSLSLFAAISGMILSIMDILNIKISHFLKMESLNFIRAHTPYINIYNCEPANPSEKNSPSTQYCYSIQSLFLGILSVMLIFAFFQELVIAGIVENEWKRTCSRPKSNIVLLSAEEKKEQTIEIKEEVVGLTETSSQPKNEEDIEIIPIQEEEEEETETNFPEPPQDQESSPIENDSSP
Put plainly: cell-based or functional assay.

In test [4] the target is T2, human CD79b and CD20 co-expressed on …. Put plainly: cell-based or functional assay. This is another data set of the same source.
Test [5] concerns the target T3, cynomolgus monkey CD79b antigen (cynomolgus monkey).
T3 construct: also called cyno CD79b; CD9W1.001
Kind of test: SPR Biacore 8k, cyno CD79b injected up to 3000 nM. The protocol: General Protocol for SPR Affinity Assessment: Affinity assessment of the bispecific trispecific constructs against human CD79b were measure using recombinantly expressed extracellular domain of CD79b short and long isoforms (CD9W7.001 and CD9W8.001, respectively) by Surface Plasmon Resonance (SPR) using a Biacore 8k SPR system (Biacore) at 25° C. in HBSP+ buffer. Cross-reactivity of the same antibody panel was also assessed against cyno and mouse antigens (CD9W1.001 and CD9W105.001, respectively). Briefly, a C1 sensor chip was immobilized with anti-human Fc (target immobilization levels of >400 RU) using vendor recommended amino coupling protocol. […] The association and dissociation phases were measured for 2 or 3 minutes and 30 minutes, respectively.
The raw binding sensorgrams were processed using Biacore Insight software (Biacore) by double-referencing and the processed sensorgrams were analyzed for cross-reactivity and fitted to a 1:1 Langmuir model to obtain on-rates, off-rates and affinities.
(In general: Surface plasmon resonance follows binding to a sensor surface in real time, without labels.)

Chain of human CD3 on primary T cells (P07766 23-207): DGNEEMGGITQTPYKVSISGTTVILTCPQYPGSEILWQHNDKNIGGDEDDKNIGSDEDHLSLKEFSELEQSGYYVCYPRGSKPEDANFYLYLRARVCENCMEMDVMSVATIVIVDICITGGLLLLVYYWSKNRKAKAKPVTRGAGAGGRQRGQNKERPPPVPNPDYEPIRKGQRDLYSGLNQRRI

B1: mosunetuzumab (bispecific antibody)
chain 1: not shown
chain 2: DIQMTQSPSSLSASVGDRVTITCRASSSVSYMHWYQQKPGKAPKPLIYAPSNLASGVPSRFSGSGSGTDFTLTISSLQPEDFATYYCQQWSFNPPTFGQGTKVEIKRTVAAPSVFIFPPSDEQLKSGTASVVCLLNNFYPREAKVQWKVDNALQSGNSQESVTEQDSKDSTYSLSSTLTLSKADYEKHKVYACEVTHQGLSSPVTKSFNRGEC
chain 3: EVQLVQSGAEVKKPGASVKVSCKASGYTFTNYYIHWVRQAPGQGLEWIGWIYPGDGNTKYNEKFKGRATLTADTSTSTAYLELSSLRSEDTAVYYCARDSYSNYYFDYWGQGTLVTVSSASTKGPSVFPLAPSSKSTSGGTAALGCLVKDYFPEPVTVSWNSGALTSGVHTFPAVLQSSGLYSLSSVVTVPSSSLGTQTYICNVNHKPSNTKVDKKVEPKSCDKTHTCPPCPAPELLGGPSVFLFPPKPKDTLMISRTPEVTCVVVDVSHEDPEVKFNWYVDGVEVHNAKTKPREEQYGSTYRVVSVLTVLHQDWLNGKEYKCKVSNKALPAPIEKTISKAKGQPREPQVYTLPPSREEMTKNQVSLSCAVKGFYPSDIAVEWESNGQPENNYKTTPPVLDSDGSFFLVSKLTVDKSRWQQGNVFSCSVMHEALHNHYTQKSLSLSPGK
chain 4: not shown
B1: in test [1], the “EC50, autologous B-cell depletion, donor D198013” value amounted to 0.2 nM; the “EC50, autologous B-cell depletion, donor D221837” value is 0.5 nM; the “EC50, autologous B-cell depletion, donor D329465” value came out at 0.2 nM. Moreover, in test [2], the “EC50 of CD8 T-cell activation, CARNAVAL, E:T 1:1, 48 hours” value stood at 0.053 nM; the “EC50 of CD8 T-cell activation, CARNAVAL, E:T 1:1, 72 hours” value amounted to 0.013 nM; the “EC50 of CD8 T-cell activation, CARNAVAL, E:T 5:1, 48 hours” value stood at 0.038 nM; the “EC50 of CD8 T-cell activation, CARNAVAL, E:T 5:1, 72 hours” value stood at 0.021 nM. For the same molecule, in test [2], the “EC50 of CD8 T-cell activation, HT, E:T 5:1, 48 hours” value was 0.148 nM; the “EC50 of CD8 T-cell activation, HT, E:T 5:1, 72 hours” value was found to be 0.078 nM; the “EC50 of CD8 T-cell activation, JEKO-1, E:T 1:1, 48 hours” value stood at 0.022 nM; the “EC50 of CD8 T-cell activation, JEKO-1, E:T 1:1, 72 hours” value is 0.021 nM. In test [2], the “EC50 of CD8 T-cell activation, JEKO-1, E:T 5:1, 48 hours” value was found to be 0.043 nM; the “EC50 of CD8 T-cell activation, JEKO-1, E:T 5:1, 72 hours” value came out at 0.019 nM; the “EC50 of CD8 T-cell activation, OCI-Ly10, E:T 1:1, 48 hours” value was 0.045 nM; the “EC50 of CD8 T-cell activation, OCI-Ly10, E:T 1:1, 72 hours” value was 0.035 nM. Moreover, in test [2], the “EC50 of CD8 T-cell activation, OCI-Ly10, E:T 5:1, 48 hours” value was determined as 0.256 nM; the “EC50 of CD8 T-cell activation, OCI-Ly10, E:T 5:1, 72 hours” value was found to be 0.12 nM; the “EC50 of CD8 T-cell activation, WILL-2, E:T 5:1, 48 hours” value was found to be 1.24 nM; the “EC50 of CD8 T-cell activation, WILL-2, E:T 5:1, 72 hours” value came out at 1.27 nM.

B2: C923B36 CD79bxCD20xCD3 trispecific antibody (other)
heavy: QVQLQESGPGLVKPSETLSLTCSVSGASISSFYWSWIRQPADEGLEWIGRISPSGKTNYIPSLKSRIIMSLDASKNQFSLRLNSVTAADTAMYYCARGEYSGTYSYSFDVWGQGTMVTVSSASTKGPSVFPLAPSSKSTSGGTAALGCLVKDYFPEPVTVSWNSGALTSGVHTFPAVLQSSGLYSLSSVVTVPSSSLGTQTYICNVNHKPSNTKVDKKVEPKSCDKTHTCPPCPAPEAAGGPSVFLFPPKPKDTLMISRTPEVTCVVVSVSHEDPEVKFNWYVDGVEVHNAKTKPREEQYNSTYRVVSVLTVLHQDWLNGKEYKCKVSNKALPAPIEKTISKAKGQPREPQVYTLPPSREEMTKNQVSLSCAVKGFYPSDIAVEWESNGQPENNYKTTPPVLDSDGSFFLVSKLTVDKSRWQQGNVFSCSVMHEALHNRFTQKSLSLSPGK
light: DIVMTQSPLSLSVTPGEPASISCRSSESLLDSEDGNTYLDWFLQKPGQSPQLLIYTLSYRASGVPDRFSGSGSDTDFTLHISSLEAEDVGLYYCMQRMEFPLTFGQGTKVEIKRTVAAPSVFIFPPSDEQLKSGTASVVCLLNNFYPREAKVQWKVDNALQSGNSQESVTEQDSKDSTYSLSSTLTLSKADYEKHKVYACEVTHQGLSSPVTKSFNRGEC
chain: EIVLTQSPATLSASPGERVTLSCSASSSVSYMNWYQQKPGQAPRRWIYDSSKLASGVPARFSGSGSGRDYTLTISSLEPEDFAVYYCQQWSRNPPTFGGGTKVEIKGGSEGKSSGSGSESKSTGGSQVQLVQSGAEVKKPGSSVKVSCKASGYTFTRSTMHWVRQAPGQGLEWMGYINPSSAYTNYAQKFQGRVTLTADKSTSTAYMELSSLRSEDTAVYYCASPQVHYDYGGFPYWGQGTLVTVSSEPKSSDKTHTCPPCPAPEAAGGPSVFLFPPKPKDTLMISRTPEVTCVVVSVSHEDPEVKFNWYVDGVEVHNAKTKPREEQYNSTYRVVSVLTVLHQDWLNGKEYKCKVSNKALPAPIEKTISKAKGQPREPQVYTLPPSREEMTKNQVSLWCLVKGFYPSDIAVEWESNGQPENNYKTTPPVLDSDGSFFLYSKLTVDKSRWQQGNVFSCSVMHEALHNHYTQKSLSLSPGKGGSEGKSSGSGSESKSTGGSAIQLTQSPSSLSASVGDRVTITCRASSSVSYIHWFQQKPGKAPKPLIYATSNLASGVPSRFSGSGSGTDFTLTISSLQPEDFATYYCQQWTSNPPTFGQGTKLEIKGGSEGKSSGSGSESKSTGGSQVQLVQSGAEVKKPGSSVKVSCKASGYTFTSYNMHWVRQAPGQGLEWMGAIYPGNGDTSYAQKFQGRVTITADKSTSTAYMELSSLRSEDTAVYYCARSTYYGGDWYFNVWGQGTLVTVSS
Regarding B2, the “IC50, T-cell killing of HBL-1 (Incucyte)” value in test [3] was 31 nM. Besides, the “IC50, T-cell killing of OCI-Ly10 (Incucyte)” value in test [4] amounted to 42 nM.

B3: 79C3B601 CD79bxCD3 bispecific antibody (bispecific antibody, human IgG1, kappa, L234A L235A)
heavy: QVQLQESGPGLVKPSETLSLTCSVSGASISSFYWSWIRQPADEGLEWIGRISPSGKTNYIPSLKSRIIMSLDASKNQFSLRLNSVTAADTAMYYCARGEYSGTYSYSFDVWGQGTMVTVSSASTKGPSVFPLAPSSKSTSGGTAALGCLVKDYFPEPVTVSWNSGALTSGVHTFPAVLQSSGLYSLSSVVTVPSSSLGTQTYICNVNHKPSNTKVDKKVEPKSCDKTHTCPPCPAPEAAGGPSVFLFPPKPKDTLMISRTPEVTCVVVSVSHEDPEVKFNWYVDGVEVHNAKTKPREEQYNSTYRVVSVLTVLHQDWLNGKEYKCKVSNKALPAPIEKTISKAKGQPREPQVYTLPPSREEMTKNQVSLSCAVKGFYPSDIAVEWESNGQPENNYKTTPPVLDSDGSFFLVSKLTVDKSRWQQGNVFSCSVMHEALHNRFTQKSLSLSPGK
light: DIVMTQSPLSLSVTPGEPASISCRSSESLLDSEDGNTYLDWFLQKPGQSPQLLIYTLSYRASGVPDRFSGSGSDTDFTLHISSLEAEDVGLYYCMQRMEFPLTFGQGTKVEIKRTVAAPSVFIFPPSDEQLKSGTASVVCLLNNFYPREAKVQWKVDNALQSGNSQESVTEQDSKDSTYSLSSTLTLSKADYEKHKVYACEVTHQGLSSPVTKSFNRGEC
chain: EIVLTQSPATLSASPGERVTLSCSASSSVSYMNWYQQKPGQAPRRWIYDSSKLASGVPARFSGSGSGRDYTLTISSLEPEDFAVYYCQQWSRNPPTFGGGTKVEIKGGSEGKSSGSGSESKSTGGSQVQLVQSGAEVKKPGSSVKVSCKASGYTFTRSTMHWVKQAPGQGLEWIGYINPSSAYTNYNQKFQGRVTLTADKSTSTAYMELSSLRSEDTAVYYCASPQVHYDYAGFPYWGQGTLVTVSSEPKSSDKTHTCPPCPAPEAAGGPSVFLFPPKPKDTLMISRTPEVTCVVVSVSHEDPEVKFNWYVDGVEVHNAKTKPREEQYNSTYRVVSVLTVLHQDWLNGKEYKCKVSNKALPAPIEKTISKAKGQPREPQVYTLPPSREEMTKNQVSLWCLVKGFYPSDIAVEWESNGQPENNYKTTPPVLDSDGSFFLYSKLTVDKSRWQQGNVFSCSVMHEALHNHYTQKSLSLSPGK
notes: IgG1, knobs-in-holes, Fc-gamma-receptor-silencing mutations; HC1/LC = CD79b Fab arm, third chain = CD3 scFv-Fc arm; also called 79C3B601 bsAb; CD9B374 x CD3B2030-N106A
In general, Kd refers to the equilibrium constant for the complex coming apart. For B3, the Kd in test [5] is above 3000 nM.
